Test results reported in the supplement of paper PMC5998384.

Key:
HeLa Kyoto [1] = test: solubility in G1/S (NP-40 vs SDS abundance) (log2 ratio); higher = more soluble; settings: cell cycle stage: G1/S
HeLa Kyoto [2] = test: melting temperature (median over replicates), in situ; higher = more thermally stable
HeLa Kyoto [3] = test: solubility change mitosis vs G1/S (difference of NP-40 vs SDS log2 ratios) (log2 ratio difference); higher = more soluble in mitosis
HeLa Kyoto [4] = test: thermal stability score vs G1/S (z-score of summed log2 fold changes over temperatures); higher = more thermally stable than in G1/S
[5] = cell cycle stage: early G1 (4.5 h after nocodazole release)
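For melting temperature (median over replicates), in situ in this document: HeLa Kyoto cells synchronized by double thymidine or nocodazole block, proteins quantified by TMT10plex mass spectrometry, three independent biological replicates.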
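For solubility change mitosis vs G1/S (difference of NP-40 vs SDS log2 ratios) in this document: synchronized HeLa Kyoto cells (double thymidine block for G1/S, nocodazole release for mitosis), protein amounts in NP-40 versus SDS lysates quantified by mass spectrometry, three biological replicates.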
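For solubility in G1/S (NP-40 vs SDS abundance) in this document: HeLa Kyoto cells arrested at G1/S by double thymidine block, proteins quantified by TMT10plex mass spectrometry in mild NP-40 versus SDS extracts, three biological replicates.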
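For thermal stability score vs G1/S (z-score of summed log2 fold changes over temperatures) in this document: synchronized HeLa Kyoto cells, proteins quantified by TMT10plex mass spectrometry, three biological replicates, mitosis taken 0.5 h after nocodazole release, G1/S directly after double thymidine block.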

Row | Sequence | solubility in G1/S (log2) (HeLa Kyoto [1]) | melting temperature (HeLa Kyoto [2]; cell cycle stage: G1/S) [°C] | melting temperature (HeLa Kyoto [2]; cell cycle stage: mitosis) [°C] | solubility change mitosis (log2) (HeLa Kyoto [3]) | thermal stability score (HeLa Kyoto [4]; [5]) | thermal stability score (HeLa Kyoto [4]; cell cycle stage: mitosis)
1 | MNEAMATDSPRRPSRCTGGVVVRPQAVTEQSYMESVVTFLQDVVPQAYSGTPLTEEKEKIVWVRFENADLNDTSRNLEFHEIHSTGNEPPLLIMIGYSDGMQVWSIPISGEAQELFSVRHGPIRAARILPAPQFGAQKCDNFAEKRPLLGVCKSIGSSGTSPPYCCVDLYSLRTGEMVKSIQFKTPIYDLHCNKRILVVVLQEKIAAFDSCTFTKKFFVTSCYPCPGPNMNPIALGSRWLAYAENKLIRCHQSRGGACGDNIQSYTATVISAAKTLKSGLTMVGKVVTQLTGTLPSGVTEDDVAIHSNSRRSPLVPGIITVIDTETVGEGQVLVSEDSDSDGIVAHFPAHEKPVCCMAFNTSGMLLVTTDTLGHDFHVFQILTHPWSSSQCAVHHLYTLHRGETEAKVQDICFSHDCRWVVVSTLRGTSHVFPINPYGGQPCVRTHMSPRVVNRMSRFQKSAGLEEIEQELTSKQGGRCSPVPGLSSSPSGSPLHGKLNSQDSYNNFTNNNPGNPRLSPLPSLMVVMPLAQIKQPMTLGTITKRTGPYLFGAGCFSIKAPCKVKPPPQISPSKSMGGEFCVAAIFGTSRSWFANNAGLKREKDQSKQVVVESLYIISCYGTLVEHMMEPRPLSTAPKISDDTPLEMMTSPRASWTLVRTPQWNELQPPFNANHPLLLAADAVQYYQFLLAGLVPPGSPGPITRHGSYDSLASDHSGQEDEEWLSQVEIVTHTGPHRRLWMGPQFQFKTIHPSGQTTVISSSSSVLQSHGPSDTPQPLLDFDTDDLDLNSLRIQPVRSDPVSMPGSSRPVSDRRGVSTVIDAASGTFDRSVTLLEVCGSWPEGFGLRHMSSMEHTEEGLRERLADAMAESPSRDVVGSGTELQREGSIETLSNSSGSTSGSIPRNFDGYRSPLPTNESQPLSLFPTGFP [BCAS3] | -0.0403 | 52.9 | 52.2 | -0.229 | -0.731 | -1.02
2 | MGDMANNSVAYSGVKNSLKEANHDGDFGITLAELRALMELRSTDALRKIQESYGDVYGICTKLKTSPNEGLSGNPADLERREAVFGKNFIPPKKPKTFLQLVWEALQDVTLIILEIAAIVSLGLSFYQPPEGDNALCGEVSVGEEEGEGETGWIEGAAILLSVVCVVLVTAFNDWSKEKQFRGLQSRIEQEQKFTVIRGGQVIQIPVADITVGDIAQVKYGDLLPADGILIQGNDLKIDESSLTGESDHVKKSLDKDPLLLSGTHVMEGSGRMVVTAVGVNSQTGIIFTLLGAGGEEEEKKDEKKKEKKNKKQDGAIENRNKAKAQDGAAMEMQPLKSEEGGDGDEKDKKKANLPKKEKSVLQGKLTKLAVQIGKAGLLMSAITVIILVLYFVIDTFWVQKRPWLAECTPIYIQYFVKFFIIGVTVLVVAVPEGLPLAVTISLAYSVKKMMKDNNLVRHLDACETMGNATAICSDKTGTLTMNRMTVVQAYINEKHYKKVPEPEAIPPNILSYLVTGISVNCAYTSKILPPEKEGGLPRHVGNKTECALLGLLLDLKRDYQDVRNEIPEEALYKVYTFNSVRKSMSTVLKNSDGSYRIFSKGASEIILKKCFKILSANGEAKVFRPRDRDDIVKTVIEPMASEGLRTICLAFRDFPAGEPEPEWDNENDIVTGLTCIAVVGIEDPVRPEVPDAIKKCQRAGITVRMVTGDNINTARAIATKCGILHPGEDFLCLEGKDFNRRIRNEKGEIEQERIDKIWPKLRVLARSSPTDKHTLVKGIIDSTVSDQRQVVAVTGDGTNDGPALKKADVGFAMGIAGTDVAKEASDIILTDDNFTSIVKAVMWGRNVYDSISKFLQFQLTVNVVAVIVAFTGACITQDSPLKAVQMLWVNLIMDTLASLALATEPPTESLLLRKPYGRNKPLISRTMMKNILGHAFYQLVVVFTLLFAGEKFFDIDSGRNAPLHAPPSEHYTIVFNTFVLMQLFNEINARKIHGERNVFEGIFNNAIFCTIVLGTFVVQIIIVQFGGKPFSCSELSIEQWLWSIFLGMGTLLWGQLISTIPTSRLKFLKEAGHGTQKEEIPEEELAEDVEEIDHAERELRRGQILWFRGLNRIQTQIRVVNAFRSSLYEGLEKPESRSSIHNFMTHPEFRIEDSEPHIPLIDDTDAEDDAPTKRNSSPPPSPNKNNNAVDSGIHLTIEMNKSATSSSPGSPLHSLETSL [ATP2B1] | -0.179 | 54.1 | 53.4 | -0.103 | 0.336 | 1.72
3 | MTDYGEEQRNELEALESIYPDSFTVLSENPPSFTITVTSEAGENDETVQTTLKFTYSEKYPDEAPLYEIFSQENLEDNDVSDILKLLALQAEENLGMVMIFTLVTAVQEKLNEIVDQIKTRREEEKKQKEKEAEEAEKQLFHGTPVTIENFLNWKAKFDAELLEIKKKRMKEEEQAGKNKLSGKQLFETDHNLDTSDIQFLEDAGNNVEVDESLFQEMDDLELEDDEDDPDYNPADPESDSAD [RWDD1] | 0.348 | 52.7 | 54 | 0.0192 | 0.855 | 0.947
